The record followed here is patent publication US5788969A, “Peptides for inducing cytotoxic T lymphocyte responses hepatitis B virus” (priority 1995, dated 1998).

Data set [1] concerns PBMC from patients and normal donors. The settings on record: patients A-1 and A-3, after 2-3 weeks of stimulation.
The subject of data set [2] is allogeneic target cells partially matched at HLA class I. As to the kind of experiment: HLA restriction of peptide specific CTL using allogeneic target cells partially matched at HLA class I. As to conditions: clone B3 (patient A-1) and polyclonal CTL line (patient A-3). Format: cell-based, human. The protocol:
Using patient A-1's HBsAg329-348 specific cell line four clones were derived from cells plated at 1 cell per well (clone B13, B16, B17) or 0.3 cells per well (clone B3). Clone B3 was tested against a panel of allogeneic target cells partially matched with the effectors at the level of HLA class I alleles. […] Since the HLA-A2 subtypes of the patients were not determined, it is not known if the CTL response to the peptides is restricted only by the HLA-A2.1 allele or whether it extends to other HLA-A2 subtypes as well.

Take ASARFSWLSLLVPFVQWFVG [HBsAg329-348]: the “cytotoxic response of peptide stimulated PBMC against JY cells prepulsed with the peptide” value in data set [1] is “strong cytotoxic response”. For the same sequence, in data set [2], the “HLA restriction of cytolytic activity of peptide specific CTL” value is “HLA-A2 restricted”.
